The target of test [1] is human α-thrombin (human) (UniProt P00734). The test is described as follows: amidolytic assay with chromogenic substrate S-2238, Lineweaver-Burk, 25° C.
For test [2] the target is unchanged. Nature of the test: cell-based or functional assay.
The target of test [3] is P3182, Bbs-R-(D-Pip)-Gly-Glu-Gln-Lys-Leu-Ile-Ser-Glu-Glu-Asp-Leu-Gly-Asp-Phe-Glu-Glu-Ile-Pro-Glu-Glu-Tyr-Leu-Gln. Nature of the test: cell-based or functional assay.
P3182, Bbs-R-(D-Pip)-Gly-Glu-Gln-Lys-Leu-Ile-Ser-Glu-Glu-Asp-Leu-Gly-Asp-Phe-Glu-Glu-Ile-Pro-Glu-Glu-Tyr-Leu-Gln, sequence (peptide, as listed by the source, form in doubt): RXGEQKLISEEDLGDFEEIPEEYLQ

As for “P3170, Bbs-R-(D-Pip)-Gly-(Ser-Pro-His-Tyr(P)-Glu-Lys-Val-Ser-Gly)-Asp-Phe-Glu-Glu-Ile-Pro-Glu-Glu-Tyr-Leu-Gln (peptide)”, in the test with human α-thrombin (human) [1], the inhibition constant (Ki) (commonly the dissociation constant of the complex between target and ligand, obtained from inhibition or displacement) came to 1.5 nM. The IC50, nM (25° C.), fibrinogen clotting assay with human α-thrombin (human) [2] worked out at 0.7 nM.

In turn, anti-c-myc antibody 9E10 (Sigma) came in with a clotting onset time with 150 nM peptide, 0.6 nM thrombin and 1.2 µM antibody in test [3] of 230 s.

Regarding “P3172-P3165, disulfide-linked Bbs-Arg-(D-Pip)-Gly-Cys...Cys-(Gly-Ser)8-Gly-Asp-Phe-Glu-Glu-Ile-Pro-Glu-Glu-Tyr-Leu-Gln (peptide)”, the IC50, nM (37° C.), fibrinogen clotting assay with human α-thrombin (human) [2] is 1.1 nM. For the substance “P3291, Bbs-Arg-dPip-Gly-Arg-Lys-Ser-Leu-Thr-Ile-Tyr-Ala-Gln-Val-Gln-Lys-Gly-Asp-Phe-Glu-Glu-Ile-Pro-Glu-Glu-Tyr-Leu-Gln (peptide)”, the IC50, nM, fibrinogen clotting assay (the text says 25° C.) with human α-thrombin (human) [2] was 7 nM. “P3162, Bbs-R-(D-Pip)-Gly-(Ser-Pro-His-Tyr(P)-Glu-Lys-Val-Ser-Gly)2-Asp-Phe-Glu-Glu-Ile-Pro-Glu-Glu-Tyr-Leu-Gln (peptide)” yielded an IC50, nM (25° C.), fibrinogen clotting assay with human α-thrombin (human) [2] of 19 nM.

The values are drawn from patent US20090105116A1.
